Test results published in IntAct's records for PubMed 17954914.

B1: Calcipressin-like protein (Saccharomyces cerevisiae), P36054 (parent)
chain: MGNIITDTIIITSDKCDIVDNDNVERIQVWLSKNILRKFQINENEPLQLIILKRFKRILLICPSHDISQHVMDASRALEMENFNFSYSLQDGQRNLTKQYLKVPESEKMFLISPPASPPPEFDFSKCEDAPQRHIQSHIQQDQQQRLEASQLLPNNPDKNNNGTFTLLKSKVGAITIDRCPTNDGNGQMQLADHVKTAFPPKSIFDTDDDD
partner: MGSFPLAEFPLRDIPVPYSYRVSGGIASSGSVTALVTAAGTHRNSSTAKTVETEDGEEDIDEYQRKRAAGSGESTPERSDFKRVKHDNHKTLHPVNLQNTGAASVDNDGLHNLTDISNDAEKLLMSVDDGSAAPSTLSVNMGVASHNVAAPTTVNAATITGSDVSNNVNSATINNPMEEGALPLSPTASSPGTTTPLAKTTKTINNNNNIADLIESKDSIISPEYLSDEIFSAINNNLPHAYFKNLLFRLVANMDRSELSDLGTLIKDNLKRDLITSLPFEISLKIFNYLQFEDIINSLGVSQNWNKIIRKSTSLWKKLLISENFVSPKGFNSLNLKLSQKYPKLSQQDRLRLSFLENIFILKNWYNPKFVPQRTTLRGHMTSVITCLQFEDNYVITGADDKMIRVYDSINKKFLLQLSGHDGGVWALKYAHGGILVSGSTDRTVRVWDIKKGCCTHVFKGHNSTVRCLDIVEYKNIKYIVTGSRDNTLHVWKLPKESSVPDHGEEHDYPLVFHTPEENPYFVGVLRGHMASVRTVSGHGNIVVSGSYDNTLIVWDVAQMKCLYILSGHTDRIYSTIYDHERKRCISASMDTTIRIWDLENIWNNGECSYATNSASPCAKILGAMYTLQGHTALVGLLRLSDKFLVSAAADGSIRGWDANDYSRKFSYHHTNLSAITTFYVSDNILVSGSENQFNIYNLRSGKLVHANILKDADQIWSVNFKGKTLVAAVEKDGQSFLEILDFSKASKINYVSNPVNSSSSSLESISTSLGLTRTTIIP

Variants of: B1
Conditions: with cdc4_yeast CDC4, P07834

| Variant | effect of a mutation on the interaction |
| --- | --- |
| MGNIITDTIIITSDKCDIVDNDNVERIQVWLSKNILRKFQINENEPLQLIILKRFKRILLICPSHDISQHVMDASRALEMENFNFSYSLQDGQRNLTKQYLKVPESEKMFLISPPAAPPPEFDFSKCEDAPQRHIQSHIQQDQQQRLEASQLLPNNPDKNNNGTFTLLKSKVGAITIDRCPTNDGNGQMQLADHVKTAFPPKSIFDTDDDD [S117A] | disrupting interaction |
| MGNIITDTIIITSDKCDIVDNDNVERIQVWLSKNILRKFQINENEPLQLIILKRFKRILLICPSHDISQHVMDASRALEMENFNFSYSLQDGQRNLTKQYLKVPESEKMFLIAPPASPPPEFDFSKCEDAPQRHIQSHIQQDQQQRLEASQLLPNNPDKNNNGTFTLLKSKVGAITIDRCPTNDGNGQMQLADHVKTAFPPKSIFDTDDDD [S113A] | disrupting interaction |
| MGNIITDTIIITSDKCDIVDNDNVERIQVWLSKNILRKFQINENEPLQLIILKRFKRILLICPSHDISQHVMDASRALEMENFNFSYSLQDGQRNLTKQYLKVPESEKMFLIAPPAAPPPEFDFSKCEDAPQRHIQSHIQQDQQQRLEASQLLPNNPDKNNNGTFTLLKSKVGAITIDRCPTNDGNGQMQLADHVKTAFPPKSIFDTDDDD [S113A;S117A] | disrupting interaction strength |
